Patent US20250136720A1 (Boehringer Ingelheim, published 2025)

How the values were obtained:
[1] = target: T1, Human CD137 on Jurkat cells (human, UniProt Q07011 24-255); experiment: cell-based or functional assay; set-up: IC90; Jurkat-CD137 NFkB-luciferase, HT1080-FAP co-culture / EC90; Jurkat-CD137 NFkB-luciferase, HT1080-FAP co-culture: unit not given beside the values
[2] = target: T1, Human CD137 on Jurkat cells; experiment: cell-based or functional assay

EC90; Jurkat-CD137 NFkB-luciferase, HT1080-FAP co-culture [1]	IC90; Jurkat-CD137 NFkB-luciferase, HT1080-FAP co-culture [1]	Total AUC; Jurkat-CD137 NFkB-luciferase, HT1080-FAP co-culture [1]	Average EC50; Jurkat-CD137 NFkB-luciferase, HT1080-FAP co-culture [2] [nM]	Average EC90; Jurkat-CD137 NFkB-luciferase, HT1080-FAP co-culture [2] [nM]	Average IC50; Jurkat-CD137 NFkB-luciferase, HT1080-FAP co-culture [2] [nM]	Average IC90; Jurkat-CD137 NFkB-luciferase, HT1080-FAP co-culture [2] [nM]	Ratio IC50/EC50; Jurkat-CD137 NFkB-luciferase, HT1080-FAP co-culture [2]	Ratio IC90/EC90; Jurkat-CD137 NFkB-luciferase, HT1080-FAP co-culture [2]	Binder
2.41	144	1.9e+06	–	–	–	–	–	–	CD137 #3 (B21.V22) + FAP #3 (A11 VK7/VH1) (bispecific antibody, human IgG1, kappa, L234A L235A) heavy: not shown light: DIQMTQSPSSLSASVGDRVTITCRASQSVSSALAWYQQKPGKAPKLLIYAASYRQSGVPSRFSGSGSGTDFTLTISSLQPEDFAVYYCQQHYSNPWTFGQGTKLEIKRTVAAPSVFIFPPSDEQLKSGTASVVCLLNNFYPREAKVQWKVDNALQSGNSQESVTEQDSKDSTYSLSSTLTLSKADYEKHKVYACEVTHQGLSSPVTKSFNRGEC
–	–	–	0.082	0.613	361	48.4	4380	79.1	CD137 #2 (B21.V16) + FAP #3 (A11 VK7/VH1) (bispecific antibody, human IgG1, kappa, L234A L235A) heavy: not shown light: DIQMTQSPSSLSASVGDRVTITCKASQDISSAVAWYQQKPGKAPKLLIYSASSRYTGVPSRFSGSGSGTDFTLTISSLQPEDFAVYYCQQHYSNPWTFGQGTKLEIKRTVAAPSVFIFPPSDEQLKSGTASVVCLLNNFYPREAKVQWKVDNALQSGNSQESVTEQDSKDSTYSLSSTLTLSKADYEKHKVYACEVTHQGLSSPVTKSFNRGEC
1.42	69.6	2.4e+06	–	–	–	–	–	–	CD137 #3 (B21.V22) + FAP #2 (A11 VK3/VH3) (bispecific antibody, human IgG1, kappa, L234A L235A) heavy: not shown light: DIQMTQSPSSLSASVGDRVTITCRASQSVSSALAWYQQKPGKAPKLLIYAASYRQSGVPSRFSGSGSGTDFTLTISSLQPEDFAVYYCQQHYSNPWTFGQGTKLEIKRTVAAPSVFIFPPSDEQLKSGTASVVCLLNNFYPREAKVQWKVDNALQSGNSQESVTEQDSKDSTYSLSSTLTLSKADYEKHKVYACEVTHQGLSSPVTKSFNRGEC
2.18	87.8	2.3e+06	–	–	–	–	–	–	CD137 #3 (B21.V22) + FAP #5 (C3 VK1/VH4) (bispecific antibody, human IgG1, kappa, L234A L235A) heavy: not shown light: DIQMTQSPSSLSASVGDRVTITCRASQSVSSALAWYQQKPGKAPKLLIYAASYRQSGVPSRFSGSGSGTDFTLTISSLQPEDFAVYYCQQHYSNPWTFGQGTKLEIKRTVAAPSVFIFPPSDEQLKSGTASVVCLLNNFYPREAKVQWKVDNALQSGNSQESVTEQDSKDSTYSLSSTLTLSKADYEKHKVYACEVTHQGLSSPVTKSFNRGEC
1.91	86.7	1.26e+07	–	–	–	–	–	–	CD137 #10 (A49.V48) + FAP #3 (A11 VK7/VH1) (bispecific antibody, human IgG1, kappa, L234A L235A) heavy: not shown light: EIVMTQSPLSLPVTPGEPASISCRSSQSLLYSQGYNHLDWYLQKPGQSPQLLIYGGSNRASGVPDRFSGSGSGTDFTLKISRVEAEDVGVYYCMQALQTPPTFGQGTKLEIKRTVAAPSVFIFPPSDEQLKSGTASVVCLLNNFYPREAKVQWKVDNALQSGNSQESVTEQDSKDSTYSLSSTLTLSKADYEKHKVYACEVTHQGLSSPVTKSFNRGEC
6.24	700	1.13e+07	–	–	–	–	–	–	CD137 #10 (A49.V48) + FAP #5 (C3 VK1/VH4) (bispecific antibody, human IgG1, kappa, L234A L235A) heavy: not shown light: EIVMTQSPLSLPVTPGEPASISCRSSQSLLYSQGYNHLDWYLQKPGQSPQLLIYGGSNRASGVPDRFSGSGSGTDFTLKISRVEAEDVGVYYCMQALQTPPTFGQGTKLEIKRTVAAPSVFIFPPSDEQLKSGTASVVCLLNNFYPREAKVQWKVDNALQSGNSQESVTEQDSKDSTYSLSSTLTLSKADYEKHKVYACEVTHQGLSSPVTKSFNRGEC
1.65	1.07	9.5e+06	–	–	–	–	–	–	CD137 #9 (A49.V47) + FAP #3 (A11 VK7/VH1) (bispecific antibody, human IgG1, kappa, L234A L235A) heavy: not shown light: EIVMTQSPLSLPVTPGEPASISCRSSQSLLYSQGYNHLDWYLQKPGQSPQLLIYGGSNRASGVPDRFSGSGSGTDFTLKISRVEAEDVGVYYCMQALQTPPTFGQGTKLEIKRTVAAPSVFIFPPSDEQLKSGTASVVCLLNNFYPREAKVQWKVDNALQSGNSQESVTEQDSKDSTYSLSSTLTLSKADYEKHKVYACEVTHQGLSSPVTKSFNRGEC
